Source: PMC7494017

Assays:
[1] = molecular target: SAV1 Y273E-WW12ex (mouse); assay: ITC
[2] = molecular target: SAV1 WW12 (aa E198-A268) (mouse) (UniProt Q8VEB2); assay: ITC
[3] = molecular target: SAV1 S245D-WW12ex (mouse); assay: SEC-MALS

Substance: Dendrin PY23 (aa D222-G241) (from UniProt Q80TS7 222-241) (domain or fragment)
- Kd [1]: 3.8 µM

Substance: Dendrin PY23 with the PPPY motif changed into PPDY (from UniProt Q80TS7 222-241) (domain or fragment)
- fold weakening of binding against WT dendrin PY23 [2]: 18 fold

Substance: SAV1 S245D-WW12ex (domain or fragment)
- stoichiometry N [3]: 2
